Assay results taken from US9724426B2, “Agents, uses and methods” (AFFINICON APS, priority 2009, dated 2017).

Legend:
[1] = biological target: recombinant CD163 immobilized on a Biacore chip (Homo sapiens, UniProt Q86VB7); test: Surface plasmon resonance (Biacore) analysis of mAb binding to immobilized CD163; details: 5 μg/ml
Description: SPR analysis of the binding of mAbs to CD163 was carried out on a Biacore 2000 instrument (Biacore, Uppsala, Sweden). The Biacore sensor chips (type CM5) were activated with a 1:1 mixture of 0.2 M N-ethyl-N′-(3-dimethylaminopropyl) carbodiimide and 0.05 M N-hydroxysuccimide in water. Purified recombinant CD163 were immobilized in 10 mM sodium acetate, pH 4.0, and the remaining binding sites were blocked with 1 M ethanolamine, pH 8.5. The SPR signal generated from immobilized recombinant CD163 proteins corresponded to 40-70 fmol of protein/mm^2. Sensorgrams were generated using mAb concentrations ranging from 5-100 nM. The flow cells were regenerated with 1.6 M glycine-HCl, pH 3. The running buffer used for the experiment was either CaHBS 10 mM Hepes, 150 mM NaCl, 3.0 mM CaCl2, 1.0 mM EGTA, and 0.005% Tween 20, pH 7.4. or 10 mM Hepes, 150 mM NaCl, 3.0 mM EDTA, and 0.005% Tween 20, pH 7.4, mAb samples were dissolved in the same buffer as the running buffer used. All binding data were analyzed using the Biamolecular Interaction Analysis evaluation program version 3.1.
SPR analysis of the binding of mAbs to CD163 was carried out on a Biacore 2000 instrument (Biacore, Uppsala, Sweden). […] All binding data were analyzed using the Biamolecular Interaction Analysis evaluation program version 3.1.

[2] = system: LPS induction of TNF production in human in vitro matured macrophages; test: Dexamethasone treatment of cultivated pro-inflammatory macrophages, soluble TNF by cytometry bead array; format: cell-based; details: without dexamethasone; results not shown
Description: Monocytes were resuspended in RMPI 1640 medium (Sigma-Aldrich, Brondby, Denmark) containing 20% fetal calf serum (FCS) supplemented with 100 ng/ml M-CSF (GenScript Corporation, New Jersey, USA) and pencillin/streptomycin (pen/strep) for 7 days. The first 3 days in Tissue Culture Flasks at 37° C. and 5% CO2. The monocytes were then detached from the flask by flushing and scraping. The monocytes were divided into smaller portions and further grown for four days. […] cells per well were grown in 96 well tissue culture plates for TNF CBA use.
Subsequently, the macrophages were activated in RMPI 1640 containing 5% FCS, 1 ug/ml lipopolysaccaride (LPS) (Sigma-Aldrich, Brøondby, Denmark) and 20 ng/ml INF-gamma (Genscript Corporation, New Jersey, USA) for 18 hours making them pro-inflammatory.
The pro-inflammatory macrophages were stimulated with RMPI160, 5% FCS, 1 ug/ml LPS and 20 ng/ml INF-gamma containing either dexamethasone, Ab-dexamethasone or no drug.
To detect the change in soluble TNF-alpha concentration we used the Cytometry Bead Array Kit (BD Biosciences, New Jersey, USA). The media from the in vitro stimulated macrophages (described earlier) grown in 96 well tissue culture plates were analyzed according to the manufacturer's protocol.

recombinant CD163 immobilized on a Biacore chip, sequence (Q86VB7 42-1156): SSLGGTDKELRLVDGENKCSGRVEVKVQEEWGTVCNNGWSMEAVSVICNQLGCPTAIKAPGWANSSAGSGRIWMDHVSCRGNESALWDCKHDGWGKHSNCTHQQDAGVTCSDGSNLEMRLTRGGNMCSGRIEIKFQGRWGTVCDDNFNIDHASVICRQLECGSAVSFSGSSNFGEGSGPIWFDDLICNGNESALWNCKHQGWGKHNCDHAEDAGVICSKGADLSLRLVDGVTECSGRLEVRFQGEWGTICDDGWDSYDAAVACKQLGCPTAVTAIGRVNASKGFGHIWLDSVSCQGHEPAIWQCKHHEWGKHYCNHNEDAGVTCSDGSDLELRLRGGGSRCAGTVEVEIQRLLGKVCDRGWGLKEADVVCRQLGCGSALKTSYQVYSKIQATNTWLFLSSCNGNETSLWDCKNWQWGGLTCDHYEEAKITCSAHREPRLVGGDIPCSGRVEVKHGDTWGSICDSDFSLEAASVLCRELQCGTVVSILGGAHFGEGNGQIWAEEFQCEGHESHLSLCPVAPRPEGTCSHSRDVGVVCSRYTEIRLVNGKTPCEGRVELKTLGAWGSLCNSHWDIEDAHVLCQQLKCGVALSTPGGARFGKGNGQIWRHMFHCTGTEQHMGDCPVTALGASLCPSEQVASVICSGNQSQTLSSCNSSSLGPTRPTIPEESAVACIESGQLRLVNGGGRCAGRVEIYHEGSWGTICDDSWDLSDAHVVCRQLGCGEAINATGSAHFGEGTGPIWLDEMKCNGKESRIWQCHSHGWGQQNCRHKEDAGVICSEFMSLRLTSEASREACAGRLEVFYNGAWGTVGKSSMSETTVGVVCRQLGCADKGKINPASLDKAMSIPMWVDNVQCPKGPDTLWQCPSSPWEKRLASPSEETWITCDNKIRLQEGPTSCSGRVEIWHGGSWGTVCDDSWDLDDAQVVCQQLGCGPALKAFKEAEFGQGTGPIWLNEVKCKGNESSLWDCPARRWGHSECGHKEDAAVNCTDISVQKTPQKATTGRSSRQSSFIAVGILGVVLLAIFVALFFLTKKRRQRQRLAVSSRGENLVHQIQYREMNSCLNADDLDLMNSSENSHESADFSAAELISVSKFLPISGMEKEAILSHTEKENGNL

B1: Mac2-158: murine anti-human CD163 mAb binding SRCR domain 1; VH SEQ ID NO:20, VL SEQ ID NO:21; IQ Products (antibody, V domains shown)
VH: DVQLQESGPGLVKPSQSLSLTCTVTGYSITSDYAWNWIRQFPGNKLEWMGYITYSGITNYNPSLKSQISITRDTSKNQFFLQLNSVTTEDTATYYCVSGTYYFDYWGQGTTLTVSS
VL: SVVMTQTPKSLLISIGDRVTITCKASQSVSSDVAWFQQKPGQSPKPLIYYASNRYTGVPDRFTGSGYGTDFTFTISSVQAEDLAVYFCGQDYTSPRTFGGGTKLEIKRA
modifications: Mac2-158 VH sequence; Mac2-158 VL sequence
notes: IQ Products
- affinity for human CD163, KN2/NRY compared with Mac2-158 [1]: Virtually similar affinities
- effect on macrophages [2]: no effect different from buffer
